Reference: patent US20160039936A1, “FIBROBLAST GROWTH FACTOR RECEPTOR INHIBITION FOR THE TREATMENT OF DISEASE” (UNIVERSITY OF MIAMI, priority 2011, published 2016)

B1: FGF23: recombinant mouse FGF23, 6His-tagged Tyr25-Val251 (Arg179Gln) (R&D Systems) (protein)
chain: YPDTSPLLGSNWGSLTHLYTATARTSYHLQIHRDGHVDGTPHQTIYSALMITSEDAGSVVITGAMTRRFLCMDLHGNIFGSLHFSPENCKFRQWTLENGYDVYLSQKHHYLVSLGRAKRIFQPGTNPPPFSQFLARRNEVPLLHFYTVRPRRHTQSAEDPPERDPLNVLKPRPRATPVPVSCSRELPSAEEGGPAASDPLGVLRRGRGDARGGAGGADRCRPFPRFV
modifications: left off: small tags and cut ends
B2: FGF2: recombinant mouse FGF2 (Ala11-Ser154) (R&D Systems) (protein)
chain: ALPEDGGAAFPPGHFKDPKRLYCKNGGFFLRIHPDGRVDGVREKSDPHVKLQLQAEERGVVSIKGVCANRYLAMKEDGRLLASKCVTEECFFFERLESNNYNTYRSRKYSSWYVALKRTGQYKLGSKTGPGQKAILFLPMSAKS

Columns and labels:
isolated NRVM [1] = test: Hypertrophic marker expression in NRVM (RT-PCR, α-actinin immunoblot); format: cell-based, rat; settings: for α-actinin protein levels: 48 h, immunoblotting; for expression of ANP and BNP / expression of medium chain acyl-CoA dehydrogenase (MCAD) / expression of α-myosin heavy chain (α-MHC) / expression of β-myosin heavy chain (β-MHC): RT-PCR
Protocol: RNA was purified from isolated NRVM using the RNeasy kit (Qiagen), and from mouse cardiac and renal tissue using 1 ml per 100 mg tissue TRIzol (Invitrogen), following the manufacturers' protocol. Prior to RT-PCR, total RNA samples were digested with DNase I (Roche) and RNA was transcribed into cDNA using Superscript II (Invitrogen). For RT-PCR, 100 ng cDNA, AmpliTaq Gold DNA polymerase (Applied Biosystems) and sequence specific primers were used. 30 cycles (95° C., 5 minutes-53° C., 30 seconds-72° C., 30 seconds) were run on a GeneAmp PCR System 9700 (Applied Biosystems) and reactions were analyzed on a 2% agarose gel. Ethidium bromide signals were captured with a Bio-Rad Gel Doc XR system and quantified by densitometry using ImageJ software (NIH). Values were normalized to GAPDH signals and cDNAs from three independent experiments were analyzed. For nested PCR, 100 ng cDNA were used in the first run (15 cycles) with sequence specific outside primers. Five percent of the reaction was used as template for the second run (25 cycles) with sequence specific inside primers, and the total reaction was analyzed by agarose gel electrophoresis.
(§1) NRVM were scraped from a 6 cm-plate using 400 μl CHAPS extraction buffer [(20 mM Tris-HCl pH7.5, 500 mM NaCl, 0.5% CHAPS, protease inhibitor cocktail (Roche), protein phosphatase inhibitors (Sigma-Aldrich)] and incubated on ice for 15 minutes. The cell lysate was centrifuged at 14,000 rpm and 4° C. for 15 minutes and the supernatant boiled in sample buffer and analyzed by SDS-PAGE and immunoblotting as described before (Faul et al., Cell Biol., 169(3):415-424, 2005; Faul et al., Mol. Cell Biol., 27(23):8215-8227, 2007). For protein extraction from mouse hearts, tissue was isolated, minced and homogenized in CHAPS extraction buffer at 1:10 (w:v) and protein lysates were prepared as described above. Antibodies to sarcomeric α-actinin (EA-53; Sigma-Aldrich; 1:1000), total (Cell Signaling; 1:1000) and phospho-ERK (Cell Signaling; 1:1000), total and phospho-NFAT-c1 (Santa Cruz Biotechnology; 1:200), total and phospho-Akt (Cell Signaling; 1:1000 and 1:2000), and GAPDH (Abcam; 1:10,000) were used as primary antibodies and horseradish peroxidase conjugated goat-anti-mouse and goat-anti-rabbit (Promega; 1:20,000) were secondary antibodies.

isolated NRVM [2] = test: Signaling immunoblots in NRVM (p-ERK, Egr-1, p-NFAT, p-Akt); format: cell-based, rat; settings: for Egr-1 levels / phosphorylated ERK: 30 and 60 minutes
Protocol: as §1

HEK293 cells = test: FGF-FGFR-dependent signaling in HEK293 cells (Western blot, immunoprecipitation); format: cell-based; settings: for phosphorylated PLCγ levels / phosphorylation of FRS2γ (FGF2: FRS2γ and ERK1/2): HEK293, untransfected, 30 minutes
Protocol: HEK293 cells were grown in 6-well plates or 10 cm-culture dishes and transiently transfected with FuGene 6 (Roche) according to the manufacturer's protocol. After 36 hours, cells were serum-starved for 12-16 hours followed by treatment with FGF23 or FGF2 at 25 ng/ml for 15 or 30 minutes.
HEK293 cells, NRVM or NMVM were treated with growth factors for 30 minutes to analyze activation of signal transduction mediators, or for 48 hours to analyze expression levels of hypertrophic marker proteins. Cells were scraped from 6-well plates using 500 μl CHAPS extraction buffer (20 mM Tris-HCl pH7.5, 500 mM NaCl, 0.5% CHAPS, protease inhibitor cocktail (Roche), protein phosphatase inhibitors [Sigma-Aldrich]) and incubated on ice for 30 minutes. The cell lysate was centrifuged at 14,000 rpm and 4° C. for 30 minutes, and the supernatant boiled in sample buffer and analyzed by SDS-PAGE and immunoblotting. For protein extraction from mouse hearts, tissue was isolated, minced and homogenized in RIPA extraction buffer (50 mM Tris-HCl pH 7.5, 200 mM NaCl, 1% Triton X-100, 0.25% DOC, 1 mM EDTA, 1 mM EGTA, protease and phosphatase inhibitors) at 1:10 (w:v), and protein lysates were prepared as described above.
Antibodies to β-MHC (NOQ7.5.4D; Sigma-Aldrich; 1:1,000), RCAN1 (rabbit polyclonal, provided by Timothy McKinsey, University of Colorado, Denver, Colo. (Harrison et al., 2004); 1:1,000), FGFR4 (C-16; Santa Cruz; 1:1,000), total and phospho-ERK1/2 (Cell Signaling; 1:1,000), total and phospho-FRS2α (Santa Cruz 1:1,000; Cell Signaling; 1:1,000), total and phospho-PLCγ (Cell Signaling; 1:1,000), FLAG (M5, Sigma-Aldrich; 1:10,000), V5 (Sigma-Aldrich; 1:10,000) and GAPDH (Abcam; 1:10,000) were used as primary antibodies in 5% milk in TBST (RCAN1, FGFR4, FLAG, V5), 5% BSA in TBST (phospho-FRS2α) or 1.5% FBS in TBS (β-MHC, total and phospho-ERK1/2, total FRS2α, total and phospho-PLCγ, GAPDH) for 1-2 hours. Horseradish peroxidase-conjugated goat-anti-mouse and goat-anti-rabbit (Promega; 1:10,000) were secondary antibodies.
HEK293 cells in 10 cm-dishes were treated with growth factors for 30 minutes, cells were scraped using 1 ml IP buffer (50 mM Tris-HCl pH7.5, 150 mM NaCl, 5 mM MgCl2, 2 mM EGTA, 1% Triton X-100, 5% Glycerol, protease and phosphatase inhibitors), and protein lysates were prepared as described above. V5-tagged proteins were immunoprecipitated using 25 μl of anti-V5 agarose beads (Sigma-Aldrich). After 5 washes in IP buffer, proteins were eluted in 100 μl of sample buffer and analyzed by SDS-PAGE and immunoblotting. For endogenous immunoprecipitation studies from NRVM, cells in 10cm-dishes were treated with growth factors for 30 minutes. Some cells were pre-treated with FGFR4 blocking antibody at 10 μg/ml for 1 hour (human monoclonal, U3-11; U3Pharma). Cells were scraped in 1 ml RIPA buffer, and protein lysates were incubated with 2 μg of anti-FGFR4 (C-16; Santa Cruz) or anti-GFP (Clonetech) as negative control at 4° C. under rotation overnight. We added 50 μl of a 1:1 mix of Protein A on sepharose beads and Protein G on agarose beads that were previously equilibrated in RIPA buffer, followed by incubation at 4° C. under rotation for 2 hours, protein elution in sample buffer, and SDS-PAGE and Western blot analyses.

Molecule	α-actinin protein levels (isolated NRVM [1])	expression of ANP and BNP (isolated NRVM [1])	expression of medium chain acyl-CoA dehydrogenase (MCAD) (isolated NRVM [1])	expression of α-myosin heavy chain (α-MHC) (isolated NRVM [1])	expression of β-myosin heavy chain (β-MHC) (isolated NRVM [1])	Egr-1 levels (isolated NRVM [2])	phosphorylated ERK (isolated NRVM [2])	phosphorylated NFAT (isolated NRVM [2]; after 60 minutes)	phosphorylated PLCγ levels (HEK293 cells)	phosphorylation of FRS2γ (FGF2: FRS2γ and ERK1/2) (HEK293 cells)	phospho-PLCγ levels (HEK293 cells; HEK293 overexpressing FGFR4Arg385, 30 minutes)	ERK1/2 phosphorylation (HEK293 cells; HEK293 overexpressing V5-tagged FGFR4)	phosphorylation of PLCγ (HEK293 cells; HEK293 overexpressing ectopic β-klotho)	FGFR isoform binding to PLCγ (co-precipitation) (HEK293 cells; HEK293 transfected with V5-tagged FGFR1-4, 30 minutes)	levels of phospho-ERK and Egr-1 (HEK293 cells; HEK293 transiently expressing FLAG-tagged klotho)	activation of PLCγ (HEK293 cells; HEK293 with ectopic α-klotho)	phosphorylation of FRS2α and ERK1/2 (HEK293 cells; HEK293 with ectopic α-klotho)	phosphorylated Akt (isolated NRVM [2]; after 60 minutes)	FGF2-mediated FRS2α/Ras/MAPK signaling (HEK293 cells; HEK293, presence or absence of α-klotho or β-klotho)
B1	increase	increased	decreased	decreased	increased	only a modest increase	only a modest increase	modest decrease	increased	did not induce	further increased	does not increase	induced phosphorylation	only FGFR4 bound PLCγ	increased levels	did not activate	increased	–	–
B2	increase	increased	decreased	decreased	increased	increase	robust increase	had no effect	had no effect	increased	–	–	–	–	–	–	–	modest increase	unaffected
